Data on 24 molecules can be found in patent US20220363718A1 (Bicycle, published 2022).

For orientation: Kd means the equilibrium constant for the complex coming apart. Read a low Kd as tighter binding.

This assay concerns the target T1, Biotinylated human TSLP (human, biotinylated).
T1 construct: also called hTSLP; thymic stromal lymphopoietin
Nature of the assay: SPR, biotinylated hTSLP on streptavidin chip. (Surface plasmon resonance follows binding to a sensor surface in real time, without labels.)

*1 amine or outer side, *2 acyl side, *3 side chain or, on linkers, in order; H or OH if unused. Bridges are numbered along the chain shown (N, C = ends). Where no end group is shown, it is not given here. [ ]: non-standard residue; d: D form. TATA = O=C(CC[*:1])N1CN(C(=O)CC[*:2])CN(C(=O)CC[*:3])C1; Ala(cPent) = N[C@@H](CC1CCCC1)C(=O)O

T1 sequence (chain, as listed by the source limits assumed): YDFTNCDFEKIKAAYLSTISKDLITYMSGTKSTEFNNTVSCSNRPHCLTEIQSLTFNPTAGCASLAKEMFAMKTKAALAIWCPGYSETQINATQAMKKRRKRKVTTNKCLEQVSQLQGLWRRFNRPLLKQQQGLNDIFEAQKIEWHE

B1: Example 27 (peptide)
peptide: CQXLEDCWRGXC
modifications: not fully specified; N-term acetyl; CQ[Nal1]LEDCWRG[4-FPhe]C as printed; 3 Cys on TATA
In turn, B1 registered a Kd of 12 nM.

B2: Example 26 (peptide)
peptide: CQWLEDCWRGXC
modifications: not fully specified; N-term acetyl; CQWLEDCWRG[4-BrPhe]C as printed; 3 Cys on TATA
B2 registered an equilibrium dissociation constant (Kd) of 11 nM. For CQWLQDCWXGXC (N-term acetyl; CQWLQDCW[ADMA]G[4-FPhe]C as printed; 3 Cys on TATA) [Example 20], the equilibrium dissociation constant (Kd) is 8.6 nM.

B3: Example 28 (peptide)
peptide: CWWLQDCWXGXC
modifications: not fully specified; N-term acetyl; CWWLQDCW[ADMA]G[4-FPhe]C as printed; 3 Cys on TATA
B3 yielded a Kd of 12 nM. With CQWLEDCWXGXC (N-term acetyl; CQWLEDCW[4-PipA]G[4-FPhe]C as printed; 3 Cys on TATA) [Example 70] the figure was 80 nM.

Molecule Ac-CQW[Ala(cPent)]EDCWRGFC (linker 1-7-12 via TATA) [Example 65] showed an equilibrium dissociation constant (Kd) of 70 nM.

B4: Example 22 (peptide)
peptide: CQWLEDCWRGXC
modifications: not fully specified; N-term acetyl; CQWLEDCWRG[3,4diFPhe]C as printed; 3 Cys on TATA
B4 showed a Kd of 9.7 nM.

B5: Example 41 (peptide)
peptide: CQWLEDCWRGXC
modifications: not fully specified; N-term acetyl; CQWLEDCWRG[3-F,4-ClPhe]C as printed; 3 Cys on TATA
For B5, the affinity, expressed as Kd, was 24 nM.

For ETNNLECQWLEDCWRGFCA (linker 7-13-18 via TATA) [Example 71], the Kd stood at 82 nM.

Turning to SDEQRTCQWLEDCWRGFCA (linker 7-13-18 via TATA) [Example 61], the equilibrium dissociation constant (Kd) amounted to 62 nM. With DHDCTWNWEYDCWLDCA (linker 4-12-16 via TATA) [Example 200] the figure was 68 nM.

B6: Example 74 (peptide)
peptide: CQWLEDCWRGXC
modifications: not fully specified; N-term acetyl; CQWLEDCWRG[3-MePhe]C as printed; 3 Cys on TATA
B6 returned a Kd of 91 nM.

B7: Example 21 (peptide)
peptide: CQXLEDCXRGXC
modifications: not fully specified; N-term acetyl; CQ[5FTrp]LEDC[5FTrp]RG[4-FPhe]C as printed; 3 Cys on TATA
In the case of B7, the dissociation constant (Kd) was 9.2 nM. The result for Ac-CQWLEDCWRGFCAPDERD (linker 1-7-12 via TATA) [Example 54] reads 46 nM.

The molecule CQWLEDCXRGXC (N-term acetyl; CQWLEDC[4-ClNal]RG[4-FPhe]C as printed; 3 Cys on TATA) [Example 60] gave a Kd of 62 nM.

Molecule ACHWLEDCWRGFCHLE (linker 2-8-13 via TATA; not fully specified (C-terminus)) [Example 75] came in with a Kd of 92 nM.

SPPCVWLDDCWRGFCA (linker 4-10-15 via TATA) [Example 73] gave a Kd of 85 nM. With ACDWHWEYDCWLSCA (linker 2-10-14 via TATA) [Example 199] the figure was 81 nM; with ACQWLEDCWRGFCDDAHAP (linker 2-8-13 via TATA) [Example 55], 47 nM.

B8: Example 38 (peptide)
peptide: CQXLEDCWXGXC
modifications: not fully specified; N-term acetyl; CQ[Nal1]LEDCW[ADMA]G[4-FPhe]C as printed; 3 Cys on TATA
In turn, B8 yielded a Kd of 20 nM. With CAXLEDCWXGXC (N-term acetyl; CA[Nal1]LEDCW[Harg]G[4-FPhe]C as printed; 3 Cys on TATA) [Example 62] the figure was 63 nM.

B9: Example 37 (peptide)
peptide: CQWLEDCWRGXC
modifications: not fully specified; N-term acetyl; CQWLEDCWRG[3,4,5triFPhe]C as printed; 3 Cys on TATA
B9: the Kd turned out to be 19 nM.

Molecule ACTWLEDCWRGFCADS (linker 2-8-13 via TATA) [Example 63] had a dissociation constant Kd of 65 nM. The result for Ac-ACQWLEDCWRGFCPLD (linker 2-8-13 via TATA; not fully specified (C-terminus)) [Example 53] reads 43 nM.
